{
  "source": "patent US20030049246A1",
  "key": {"[1]": {"biological_target": "SHH (mouse, endogenous in purified granule neuron precursor aggregates) (mouse) (UniProt Q62226)", "sequence (Q62226 25-198 limits assumed)": "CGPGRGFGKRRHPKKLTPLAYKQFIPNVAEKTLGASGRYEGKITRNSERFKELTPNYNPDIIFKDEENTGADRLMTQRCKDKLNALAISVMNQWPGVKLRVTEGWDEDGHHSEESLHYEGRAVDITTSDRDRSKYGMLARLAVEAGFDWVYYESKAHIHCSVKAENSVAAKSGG", "assay": "cell-based or functional assay"}, "[2]": {"biological_target": "SHH (chick, endogenous in cerebellar cortical explants) (chick) (UniProt Q91035)", "sequence (Q91035 27-200 limits assumed)": "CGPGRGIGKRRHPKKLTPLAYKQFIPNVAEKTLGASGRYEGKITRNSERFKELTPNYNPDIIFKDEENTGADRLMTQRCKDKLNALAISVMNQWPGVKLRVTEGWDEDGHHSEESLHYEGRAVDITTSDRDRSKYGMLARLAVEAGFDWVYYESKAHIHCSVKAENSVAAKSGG", "assay": "cell-based or functional assay"}},
  "data": [
    {"substance": "blocking anti-SHH monoclonal antibody 5E1", "values": [
      {"measurement": "fold decrease in proliferation of purified mouse granule neuron aggregates", "setting": "[1]", "value": "3 to 4", "unit": "fold"},
      {"measurement": "fold decrease in BrdU incorporation inside D10 chick cerebellar explants (96 h)", "setting": "[2]", "value": "3 to 4", "unit": "fold"}
    ]}
  ]
}
